± gives the uncertainty stated by the source.
B1: Lysine-specific demethylase 2B, residues 656 to 722; numbered along this chain, Q8NHM5 (parent)
chain: LPHTAVCLVCGEAGKEDTVEEEEGKFNLMLMECSICNEIIHPGCLKIKESEGVVNDELPNCWECPKC

Variants of: B1
Test: abundance fitness (aPCA) (normalised: wild type 0, dead -1); higher = more abundant; growth selection in yeast, the domain comes from the species named
Details: Homo sapiens

Variant	abundance fitness
LPHTAVCLVCGEAGKEDTVEEEEGKFNLMLMSCSICNEIIHPGCLKIKESEGVVNDELPNCWECPKC [E32S]	0.044 ± 0.088
LPHTAVCLVCGEAGKEDTVEEEEGKFNLMLMICSICNEIIHPGCLKIKESEGVVNDELPNCWECPKC [E32I]	-0.072 ± 0.19
LPHTAVCLVCGEAGKEDTVEEEEGKFNLMLMLCSICNEIIHPGCLKIKESEGVVNDELPNCWECPKC [E32L]	0.005 ± 0.065
LPHTAVCLVCGEAGKEDTVEEEEGKFNLMLMACSICNEIIHPGCLKIKESEGVVNDELPNCWECPKC [E32A]	-0.222 ± 0.092
LPHTAVCLVCGEAGKEDTVEEEEGKFNLMLMKCSICNEIIHPGCLKIKESEGVVNDELPNCWECPKC [E32K]	0.156 ± 0.11
LPHTAVCLVCGEAGKEDTVEEEEGKFNLMLMPCSICNEIIHPGCLKIKESEGVVNDELPNCWECPKC [E32P]	-0.53 ± 0.22
LPHTAVCLVCGEAGKEDTVEEEEGKFNLMLMCCSICNEIIHPGCLKIKESEGVVNDELPNCWECPKC [E32C]	0.088 ± 0.099
LPHTAVCLVCGEAGKEDTVEEEEGKFNLMLMHCSICNEIIHPGCLKIKESEGVVNDELPNCWECPKC [E32H]	0.103 ± 0.12
LPHTAVCLVCGEAGKEDTVEEEEGKFNLMLMTCSICNEIIHPGCLKIKESEGVVNDELPNCWECPKC [E32T]	0.02 ± 0.12
LPHTAVCLVCGEAGKEDTVEEEEGKFNLMLMYCSICNEIIHPGCLKIKESEGVVNDELPNCWECPKC [E32Y]	-0.668 ± 0.22
LPHTAVCLVCGEAGKEDTVEEEEGKFNLMLMWCSICNEIIHPGCLKIKESEGVVNDELPNCWECPKC [E32W]	-0.247 ± 0.09
LPHTAVCLVCGEAGKEDTVEEEEGKFNLMLMDCSICNEIIHPGCLKIKESEGVVNDELPNCWECPKC [E32D]	-0.324 ± 0.15
LPHTAVCLVCGEAGKEDTVEEEEGKFNLMLMFCSICNEIIHPGCLKIKESEGVVNDELPNCWECPKC [E32F]	-0.205 ± 0.12
LPHTAVCLVCGEAGKEDTVEEEEGKFNLMLMRCSICNEIIHPGCLKIKESEGVVNDELPNCWECPKC [E32R]	0.201 ± 0.06
LPHTAVCLVCGEAGKEDTVEEEEGKFNLMLMGCSICNEIIHPGCLKIKESEGVVNDELPNCWECPKC [E32G]	-0.063 ± 0.077
LPHTAVCLVCGEAGKEDTVEEEEGKFNLMLMQCSICNEIIHPGCLKIKESEGVVNDELPNCWECPKC [E32Q]	-0.17 ± 0.15
LPHTAVCLVCGEAGKEDTVEEEEGKFNLMLMVCSICNEIIHPGCLKIKESEGVVNDELPNCWECPKC [E32V]	-0.287 ± 0.098
LPHTAVCLVCGEAGKEDTVEEEEGKFNLMLMMCSICNEIIHPGCLKIKESEGVVNDELPNCWECPKC [E32M]	0.142 ± 0.1
LPHTAVCLVCGEAGKEDTVEEEEGKFNLMLYECSICNEIIHPGCLKIKESEGVVNDELPNCWECPKC [M31Y]	-0.317 ± 0.18
LPHTAVCLVCGEAGKEDTVEEEEGKFNLMLMECEICNEIIHPGCLKIKESEGVVNDELPNCWECPKC [S34E]	-0.469 ± 0.21

Variant	abundance fitness
LPHTAVCLVCGEAGKEDTVEEEEGKFNLMLMECQICNEIIHPGCLKIKESEGVVNDELPNCWECPKC [S34Q]	0.027 ± 0.12
LPHTAVCLVCGEAGKEDTVEEEEGKFNLMLMECVICNEIIHPGCLKIKESEGVVNDELPNCWECPKC [S34V]	-0.078 ± 0.096
LPHTAVCLVCGEAGKEDTVEEEEGKFNLMLMECHICNEIIHPGCLKIKESEGVVNDELPNCWECPKC [S34H]	-0.03 ± 0.23
LPHTAVCLVCGEAGKEDTVEEEEGKFNLMLMECDICNEIIHPGCLKIKESEGVVNDELPNCWECPKC [S34D]	-0.153 ± 0.18
LPHTAVCLVCGEAGKEDTVEEEEGKFNLMLMECKICNEIIHPGCLKIKESEGVVNDELPNCWECPKC [S34K]	-0.021 ± 0.11
LPHTAVCLVCGEAGKEDTVEEEEGKFNLMLMECPICNEIIHPGCLKIKESEGVVNDELPNCWECPKC [S34P]	-0.456 ± 0.16
LPHTAVCLVCGEAGKEDTVEEEEGKFNLMLMECLICNEIIHPGCLKIKESEGVVNDELPNCWECPKC [S34L]	-0.36 ± 0.14
LPHTAVCLVCGEAGKEDTVEEEEGKFNLMLMECCICNEIIHPGCLKIKESEGVVNDELPNCWECPKC [S34C]	-0.053 ± 0.18
LPHTAVCLVCGEAGKEDTVEEEEGKFNLMLMECGICNEIIHPGCLKIKESEGVVNDELPNCWECPKC [S34G]	-0.106 ± 0.082
LPHTAVCLVCGEAGKEDTVEEEEGKFNLMLMECAICNEIIHPGCLKIKESEGVVNDELPNCWECPKC [S34A]	-0.273 ± 0.13
LPHTAVCLVCGEAGKEDTVEEEEGKFNLMLMECRICNEIIHPGCLKIKESEGVVNDELPNCWECPKC [S34R]	-0.229 ± 0.092
LPHTAVCLVCGEAGKEDTVEEEEGKFNLMLMECWICNEIIHPGCLKIKESEGVVNDELPNCWECPKC [S34W]	-0.545 ± 0.15
LPHTAVCLVCGEAGKEDTVEEEEGKFNLMLMECIICNEIIHPGCLKIKESEGVVNDELPNCWECPKC [S34I]	-0.058 ± 0.1
LPHTAVCLVCGEAGKEDTVEEEEGKFNLMLMECTICNEIIHPGCLKIKESEGVVNDELPNCWECPKC [S34T]	0.082 ± 0.2
LPHTAVCLVCGEAGKEDTVEEEEGKFNLMLMECSSCNEIIHPGCLKIKESEGVVNDELPNCWECPKC [I35S]	-0.364 ± 0.19
LPHTAVCLVCGEAGKEDTVEEEEGKFNLMLMECSRCNEIIHPGCLKIKESEGVVNDELPNCWECPKC [I35R]	-0.022 ± 0.08
LPHTAVCLVCGEAGKEDTVEEEEGKFNLMLMECSMCNEIIHPGCLKIKESEGVVNDELPNCWECPKC [I35M]	0.023 ± 0.13
LPHTAVCLVCGEAGKEDTVEEEEGKFNLMLMECSLCNEIIHPGCLKIKESEGVVNDELPNCWECPKC [I35L]	0.016 ± 0.094
LPHTAVCLVCGEAGKEDTVEEEEGKFNLMLMECSCCNEIIHPGCLKIKESEGVVNDELPNCWECPKC [I35C]	-0.119 ± 0.21
LPHTAVCLVCGEAGKEDTVEEEEGKFNLMLMECSYCNEIIHPGCLKIKESEGVVNDELPNCWECPKC [I35Y]	-0.548 ± 0.28

— the Human Domainome abundance scans (Beltran et al. 2025)
